Results on one substance are retold here after patent US20180305460A1.

Test [1] deals with interferon-alpha/β receptor (IFNAR) (human) (UniProt P17181).
Test [2] has the same target. The source holds these as a separate data set.
The target is the same in test [3]. The source holds these as a separate data set.

interferon-alpha/β receptor (IFNAR) (human), sequence (P17181 28-557 limits assumed): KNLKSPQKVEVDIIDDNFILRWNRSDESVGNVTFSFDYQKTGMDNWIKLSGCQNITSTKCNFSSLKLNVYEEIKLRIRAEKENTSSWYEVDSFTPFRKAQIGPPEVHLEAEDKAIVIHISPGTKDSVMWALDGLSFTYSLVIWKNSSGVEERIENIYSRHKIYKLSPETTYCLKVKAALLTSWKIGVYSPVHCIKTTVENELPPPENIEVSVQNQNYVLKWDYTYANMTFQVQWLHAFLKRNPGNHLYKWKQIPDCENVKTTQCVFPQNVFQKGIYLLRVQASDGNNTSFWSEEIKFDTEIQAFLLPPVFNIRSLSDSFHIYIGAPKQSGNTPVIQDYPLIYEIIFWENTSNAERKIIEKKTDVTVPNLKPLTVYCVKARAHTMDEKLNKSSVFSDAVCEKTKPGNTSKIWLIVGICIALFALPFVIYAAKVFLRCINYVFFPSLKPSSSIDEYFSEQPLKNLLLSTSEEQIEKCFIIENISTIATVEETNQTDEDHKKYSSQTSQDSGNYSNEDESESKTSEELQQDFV

In test [1], Intron A (ligand) gave an EC50; HEK-Blue IFN-alpha/β SEAP reporter (A630) on CD38-negative cells; table column headed 'IFNa2b', curve labelled 'Intron A', the unit comes from the x axis 'IFN pM' of 1.52 pM. Also, the half-maximal concentration headed 'IC50 pM' on the sheet (paragraph 233 calls the values EC50; the curves rise); iLite IFN-response-element luciferase reporter (RLU) in test [2] is 0.0645 pM. In addition, in test [3], the EC50; HEK-Blue IFN-alpha/β SEAP reporter (A630nm), left panel, the unit comes from the x axis 'Ifnα2b Equivalents in pM' came out at 1.13 pM and the EC50; HEK-Blue IFN-alpha/β SEAP reporter (A630nm), right panel, the unit comes from the x axis 'IFNα2b equivlaents in pM' is 1.52 pM.
